B1: anti-mouse PlexinA1 antibody PXB361b (antibody)
heavy: QSLEESGGDLVKPEGSLTLSCTASGFTISSSYWICWVRQAPGKGLEWIACIYVGSGDGYTYYASWAKGRFTISKTSSTTVTLRMTSLTAADTATYFCARGGDGGVGGFDFFDPWGPGTLVTVSSGQPKAPSVFPLAPCCGDTPSSTVTLGCLVKGYLPEPVTVTWNSGTLTNGVRTFPSVRQSSGLYSLSSVVSVTSSSQPVTCNVAHPATNTKVDKTVAPSTCSKPMCPPPELLGGPSVFIFPPKPKDTLMISRTPEVTCVVVDVSQDDPEVQFTWYINNEQVRTARPPLREQQFNSTIRVVSTLPIAHQDWLRGKEFKCKVHNKALPAPIEKTISKARGQPLEPKVYTMGPPREELSSRSVSLTCMINGFYPSDISVEWEKNGKAEDNYKTTPTVLDSDGSYFLYSKLSVPTSEWQRGDVFTCSVMHEALHNHYTQKSISRSPGK
light: DVVLTQTPASVSEPVGGTVTIKCQATESINRNCAWYQQKPGQPPKLLIYRASTLASGVPSRFKGSGSGTEFTLTISDLECADAATYYCQCTDYGTYYVAFGGGTEVVVKGDPVAPTVLIFPPAADQVATGTVTIVCVANKYFPDVTVTWEVDGTTQTTGIENSKTPQNSADCTYNLSSTLTLTSTQYNSHKEYTCKVTQGTTSVVQSFNRGDC
notes: Antagonist antibody
B2: mouse chimeric anti-mouse PlexinA1 antibody PXB361b-mFc (antibody, mouse IgG1, kappa)
heavy: QSLEESGGDLVKPEGSLTLSCTASGFTISSSYWICWVRQAPGKGLEWIACIYVGSGDGYTYYASWAKGRFTISKTSSTTVTLRMTSLTAADTATYFCARGGDGGVGGFDFFDPWGPGTLVTVSSAKTTPPSVYPLAPGSAAQTNSMVTLGCLVKGYFPEPVTVTWNSGSLSSGVHTFPAVLQSDLYTLSSSVTVPSSTWPSETVTCNVAHPASSTKVDKKIVPRDCGCKPCICTVKEVSKVFIFPPKPKDVLTITLTPKVTCVVVDISKDDPEVQFSWFVDDVEVHTAQTQPREEQFNSTFRSVSELPIMHQDWLNGKEFKCRVNSAAFPAPIEKTISKTKGRPKAPQVYTIPPPKEQMAKDKVSLTCMITDFFPEDITVEWQWNGQPAENYKNTQPIMDTDGSYFVYSKLNVQKSNWEAGNTFTCSVLHEGLHNHHTEKSLSHSPGK
light: DVVLTQTPASVSEPVGGTVTIKCQATESINRNCAWYQQKPGQPPKLLIYRASTLASGVPSRFKGSGSGTEFTLTISDLECADAATYYCQCTDYGTYYVAFGGGTEVVVKRADAAPTVSIFPPSSEQLTSGGASVVCFLNNFYPKDINVKWKIDGSERQNGVLNSWTDQDSKDSTYSMSSTLTLTKDEYERHNSYTCEATHKTSTSPIVKSFNRNEC
notes: Rabbit variable regions on mouse IgG1 heavy and mouse light chain constant regions; Antagonist antibody
B3: mouse chimeric anti-mouse PlexinA1 antibody PXB693-mFc (antibody, mouse IgG2a, kappa)
heavy: QSVEESGGRLVTPGTPLTLTCTVSGFSLSSSAMTWVRQAPGKGLEWIGIINNSNIAAYASWTKGRFTISKTSTTVDLKITSPIIEDTATYFCARGDVGTTHYFNIWGPGTLVTVSSAKTTAPSVYPLAPVCGDTTGSSVTLGCLVKGYFPEPVTLTWNSGSLSSGVHTFPAVLQSDLYTLSSSVTVTSSTWPSQSITCNVAHPASSTKVDKKIEPRGPTIKPCPPCKCPAPNLRRGPKVFIFPPKIKDVLMISLSPIVTCVVVDVSEDDPDVQISWFVNNVEVHTAQTQTHREDYNSTLRVVSALPIQHQDWMSGKEFKCKVNNKDLPAPIERTISKPKGSVRAPQVYVLPPPEEEMTKKQVTLTCMVTDFMPEDIYVEWTNNGKTELNYKNTEPVLDSDGSYFMYSKLRVEKKNWVERNSYSCSVVHEGLHNHHTTKSFSRTPGK
light: AAVLTQTPSPVSAVVGGTVSISCQSSKSVYNNNWLSWFQQKPGQPPKLLIYGASTLASGVPSRFKGSGSGTQFTLAISDVQCDDAATYYCAGGYINSDNFAFGGGTEVVVKRADAAPTVSIFPPSSEQLTSGGASVVCFLNNFYPKDINVKWKIDGSERQNGVLNSWTDQDSKDSTYSMSSTLTLTKDEYERHNSYTCEATHKTSTSPIVKSFNRNEC
notes: Rabbit variable regions on mouse IgG2a heavy and mouse light chain constant regions; Agonist antibody
B4: mouse chimeric human/mouse cross-reactive PlexinA1 antibody 359B2-2-3-6-mFc (antibody, mouse IgG2a, lambda, V domains shown)
VH: QVQLVQSGAEVKKPGASVKVSCKASGYTFTSYYMHWVRQAPGQGLEWMGIINPSGGSTSYAQKFQGRVTMTRDTSTSTVYMELSSLRSEDTAVYYCARAPGHYYYGMDVWGQGTTVTVSS
VL: SYELTQPPSVSVSPGQTASITCSGDKLEDKYASWYQLKPGHSPVLVIYQDSKRPSGIPERFSGSNSGNTATLTISGTQAMDEADYYCRAWDSNTGDVVFGGGTKLTVLR
notes: Mouse IgG2a heavy chain constant region; human light chain kept
B5: anti-mouse PlexinA1 antibody PXB693 (antibody)
heavy: QSVEESGGRLVTPGTPLTLTCTVSGFSLSSSAMTWVRQAPGKGLEWIGIINNSNIAAYASWTKGRFTISKTSTTVDLKITSPIIEDTATYFCARGDVGTTHYFNIWGPGTLVTVSSGQPKAPSVFPLAPCCGDTPSSTVTLGCLVKGYLPEPVTVTWNSGTLTNGVRTFPSVRQSSGLYSLSSVVSVTSSSQPVTCNVAHPATNTKVDKTVAPSTCSKPMCPPPELLGGPSVFIFPPKPKDTLMISRTPEVTCVVVDVSQDDPEVQFTWYINNEQVRTARPPLREQQFNSTIRVVSTLPIAHQDWLRGKEFKCKVHNKALPAPIEKTISKARGQPLEPKVYTMGPPREELSSRSVSLTCMINGFYPSDISVEWEKNGKAEDNYKTTPTVLDSDGSYFLYSKLSVPTSEWQRGDVFTCSVMHEALHNHYTQKSISRSPGK
light: AAVLTQTPSPVSAVVGGTVSISCQSSKSVYNNNWLSWFQQKPGQPPKLLIYGASTLASGVPSRFKGSGSGTQFTLAISDVQCDDAATYYCAGGYINSDNFAFGGGTEVVVKGDPVAPTVLIFPPAADQVATGTVTIVCVANKYFPDVTVTWEVDGTTQTTGIENSKTPQNSADCTYNLSSTLTLTSTQYNSHKEYTCKVTQGTTSVVQSFNRGDC

Key:
[1] = target: T1, mouse PlexinA1 recombinant protein expressed on Ba/F3 cells (mouse, UniProt P70206 25-1290); assay: cell ELISA on mouse PlexinA1-expressing Ba/F3 cells against Ba/F3 cells
T1 construct: also called Mouse PlexinA1/BaF3; mouse PlexinA1-expressing cell line
Procedure: The antibodies obtained above were subjected to cell ELISA by the following procedure. Initially, 384-well plates were prepared, and mouse PlexinA1-expressing Ba/F3 cells and Ba/F3 cells (see Example 11) were each captured onto the bottom of different wells. After washing each well of the plates with PBS, the prepared antibodies were added at 20 μL/well, and the mixture was allowed to stand at room temperature for 1 hour. Then, each well was washed with 0.05% Tween 20-PBS, HRP-labeled anti-rabbit IgG antibody (Betyl, A120-101P) diluted 10000 times with 2% FBS-PBS was added at 20 μL/well, and the mixture was allowed to stand at room temperature for 1 hour. After washing each well of the plates with 0.05% Tween 20-PBS, the substrate solution (ABTS peroxidase substrate system) was dispensed at 20 μL/well to develop color for 1 hour at room temperature. Then, binding of the antibodies to mouse PlexinA1 was confirmed by measuring absorbance at 405 nm using SpectraMax from Molecular Devices, LLC.

[2] = target: soluble mouse PlexinA1 protein (mouse, UniProt P70206 28-1242); assay: BLI (OctetRED384), antibody on Protein G biosensor, mouse PlexinA1 at 260 nM
Procedure: Note that the L chains of the antibodies derived from the human antibody naive library were not chimerized.
Specifically, the antibodies adjusted to 10 µg/mL by 10× diluted HBS-EP+(GE healthcare, BR-1006-69) were immobilized onto Protein G biosensors (ForteBIO), and human and mouse PlexinA1 adjusted to 260 nM with HBS-EP+ were applied thereto. The Protein G biosensors were regenerated using 10 mmol/L Glycine-HCl, pH 1.5 (GE Healthcare, BR-1003-54). After the measurement, analytical software Data analysis 7.0 (ForteBIO) was used to compute amounts of binding (FIG. 5). […] In FIG. 5, the vertical axis represents amounts of binding to human and mouse PlexinA1.

soluble mouse PlexinA1 protein, sequence (P70206 other isoform, or with tags, fused parts or gaps limits assumed): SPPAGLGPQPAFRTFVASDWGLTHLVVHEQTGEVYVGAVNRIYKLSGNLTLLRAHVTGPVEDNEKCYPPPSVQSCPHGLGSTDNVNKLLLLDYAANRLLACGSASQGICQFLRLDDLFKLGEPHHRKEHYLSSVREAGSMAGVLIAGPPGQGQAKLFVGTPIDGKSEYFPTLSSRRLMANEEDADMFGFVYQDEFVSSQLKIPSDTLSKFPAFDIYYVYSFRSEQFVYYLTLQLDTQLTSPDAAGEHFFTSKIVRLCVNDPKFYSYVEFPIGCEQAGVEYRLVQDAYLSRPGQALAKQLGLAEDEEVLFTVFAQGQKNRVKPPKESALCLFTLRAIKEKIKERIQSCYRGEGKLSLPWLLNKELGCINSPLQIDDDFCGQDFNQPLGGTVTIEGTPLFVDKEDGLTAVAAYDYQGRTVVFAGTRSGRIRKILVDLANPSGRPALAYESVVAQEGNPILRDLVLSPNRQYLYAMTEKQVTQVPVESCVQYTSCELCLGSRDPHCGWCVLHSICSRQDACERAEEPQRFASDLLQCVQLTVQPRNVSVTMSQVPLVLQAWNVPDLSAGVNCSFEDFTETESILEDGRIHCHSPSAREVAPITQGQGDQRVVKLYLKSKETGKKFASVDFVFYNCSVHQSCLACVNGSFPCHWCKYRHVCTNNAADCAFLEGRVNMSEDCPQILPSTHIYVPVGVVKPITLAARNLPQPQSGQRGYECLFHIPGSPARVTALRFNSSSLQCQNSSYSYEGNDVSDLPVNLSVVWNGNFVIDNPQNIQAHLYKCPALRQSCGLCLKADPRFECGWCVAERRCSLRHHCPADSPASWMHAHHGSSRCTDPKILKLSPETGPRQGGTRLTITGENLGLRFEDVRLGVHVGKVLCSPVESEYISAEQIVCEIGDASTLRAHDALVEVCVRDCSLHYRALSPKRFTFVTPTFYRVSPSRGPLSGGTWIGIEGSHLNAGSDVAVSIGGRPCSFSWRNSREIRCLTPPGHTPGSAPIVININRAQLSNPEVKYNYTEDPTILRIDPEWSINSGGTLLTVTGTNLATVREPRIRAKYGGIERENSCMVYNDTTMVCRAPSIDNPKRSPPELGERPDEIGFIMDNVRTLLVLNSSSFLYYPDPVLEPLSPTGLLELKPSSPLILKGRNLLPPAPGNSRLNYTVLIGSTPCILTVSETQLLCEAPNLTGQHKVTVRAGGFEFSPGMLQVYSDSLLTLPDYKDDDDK
T1 sequence (P70206 other isoform, or with tags, fused parts or gaps limits assumed): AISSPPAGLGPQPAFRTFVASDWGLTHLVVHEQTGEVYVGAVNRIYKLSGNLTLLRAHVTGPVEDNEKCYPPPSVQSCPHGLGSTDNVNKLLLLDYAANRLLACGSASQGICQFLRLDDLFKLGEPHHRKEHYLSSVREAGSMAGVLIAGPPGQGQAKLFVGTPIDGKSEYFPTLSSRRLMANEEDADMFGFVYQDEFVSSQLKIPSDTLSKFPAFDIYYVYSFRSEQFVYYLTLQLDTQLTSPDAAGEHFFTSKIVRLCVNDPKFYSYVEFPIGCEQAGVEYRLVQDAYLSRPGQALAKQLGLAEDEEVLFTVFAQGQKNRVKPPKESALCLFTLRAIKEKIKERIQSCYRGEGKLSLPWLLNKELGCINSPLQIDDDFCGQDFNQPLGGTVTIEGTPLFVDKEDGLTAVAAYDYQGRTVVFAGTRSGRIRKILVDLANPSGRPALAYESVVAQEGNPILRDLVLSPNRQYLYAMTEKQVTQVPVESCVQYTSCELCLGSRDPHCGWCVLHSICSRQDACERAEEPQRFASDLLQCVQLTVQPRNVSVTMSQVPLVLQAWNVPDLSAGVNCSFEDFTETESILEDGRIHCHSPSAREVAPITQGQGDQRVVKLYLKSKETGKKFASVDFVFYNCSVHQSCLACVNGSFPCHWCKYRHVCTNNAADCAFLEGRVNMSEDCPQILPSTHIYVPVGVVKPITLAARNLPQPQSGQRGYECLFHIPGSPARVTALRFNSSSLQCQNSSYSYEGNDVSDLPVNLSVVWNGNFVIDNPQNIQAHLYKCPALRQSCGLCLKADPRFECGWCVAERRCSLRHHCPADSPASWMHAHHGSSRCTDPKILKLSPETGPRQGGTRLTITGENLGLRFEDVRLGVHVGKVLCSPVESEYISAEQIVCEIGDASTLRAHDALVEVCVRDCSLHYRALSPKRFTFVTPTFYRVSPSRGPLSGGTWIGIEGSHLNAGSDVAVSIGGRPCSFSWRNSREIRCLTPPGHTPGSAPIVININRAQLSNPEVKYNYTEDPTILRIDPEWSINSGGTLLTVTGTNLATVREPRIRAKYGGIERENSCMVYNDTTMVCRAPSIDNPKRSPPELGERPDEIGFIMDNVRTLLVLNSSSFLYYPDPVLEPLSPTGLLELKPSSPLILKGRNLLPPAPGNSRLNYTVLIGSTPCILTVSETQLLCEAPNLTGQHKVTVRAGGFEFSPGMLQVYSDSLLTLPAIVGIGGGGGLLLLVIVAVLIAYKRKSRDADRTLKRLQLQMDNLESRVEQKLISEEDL

Binder	binding result [1]	binding result [2]
B1	binds	
B2		binds
B3		binds
B4		binds
B5	binds	
